Source: patent publication US20200407442A1 (WUXI BIOLOGICS IRELAND, published 2020)

T1: mFc-tagged LAG-3 protein (human, UniProt P18627 30-450)
T1 construct: also called human LAG-3 ECD with mouse Fc tag
T1 sequence: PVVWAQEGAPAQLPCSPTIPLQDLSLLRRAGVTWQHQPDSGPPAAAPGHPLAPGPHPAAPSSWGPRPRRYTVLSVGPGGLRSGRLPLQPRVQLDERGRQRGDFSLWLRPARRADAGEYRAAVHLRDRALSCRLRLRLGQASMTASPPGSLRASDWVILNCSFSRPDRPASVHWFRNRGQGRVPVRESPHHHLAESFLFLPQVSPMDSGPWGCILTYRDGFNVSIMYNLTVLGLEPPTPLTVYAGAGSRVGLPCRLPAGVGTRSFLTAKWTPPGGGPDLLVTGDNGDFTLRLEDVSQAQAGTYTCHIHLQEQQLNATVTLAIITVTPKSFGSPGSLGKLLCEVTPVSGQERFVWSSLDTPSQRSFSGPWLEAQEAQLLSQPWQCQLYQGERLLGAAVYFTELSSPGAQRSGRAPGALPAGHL

T2: full-length human LAG-3 on cells (human, UniProt P18627 23-525)
T2 construct: Expressed on Flp-In-293, CHO or 293F transfectants; also called hPro1.FL; cell surface human LAG-3
T2 sequence: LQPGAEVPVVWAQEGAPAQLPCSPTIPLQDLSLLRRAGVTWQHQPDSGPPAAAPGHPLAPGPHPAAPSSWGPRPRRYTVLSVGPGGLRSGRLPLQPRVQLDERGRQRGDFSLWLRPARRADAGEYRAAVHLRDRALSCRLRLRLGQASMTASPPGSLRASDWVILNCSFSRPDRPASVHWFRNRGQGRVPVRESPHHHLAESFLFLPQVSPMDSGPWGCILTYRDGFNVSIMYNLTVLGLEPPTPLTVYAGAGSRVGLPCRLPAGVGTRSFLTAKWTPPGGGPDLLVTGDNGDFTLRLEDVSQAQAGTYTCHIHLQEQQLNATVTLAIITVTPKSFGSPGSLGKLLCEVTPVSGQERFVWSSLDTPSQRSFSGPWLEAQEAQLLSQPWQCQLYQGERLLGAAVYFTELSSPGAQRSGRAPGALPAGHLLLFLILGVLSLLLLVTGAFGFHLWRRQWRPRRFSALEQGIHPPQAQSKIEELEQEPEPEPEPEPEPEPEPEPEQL

T3: Variant 10: xPro1.FL-x10 (human; mouse)
T3 construct: Chimeric full-length LAG-3 on transfected 293F cells
T3 chain: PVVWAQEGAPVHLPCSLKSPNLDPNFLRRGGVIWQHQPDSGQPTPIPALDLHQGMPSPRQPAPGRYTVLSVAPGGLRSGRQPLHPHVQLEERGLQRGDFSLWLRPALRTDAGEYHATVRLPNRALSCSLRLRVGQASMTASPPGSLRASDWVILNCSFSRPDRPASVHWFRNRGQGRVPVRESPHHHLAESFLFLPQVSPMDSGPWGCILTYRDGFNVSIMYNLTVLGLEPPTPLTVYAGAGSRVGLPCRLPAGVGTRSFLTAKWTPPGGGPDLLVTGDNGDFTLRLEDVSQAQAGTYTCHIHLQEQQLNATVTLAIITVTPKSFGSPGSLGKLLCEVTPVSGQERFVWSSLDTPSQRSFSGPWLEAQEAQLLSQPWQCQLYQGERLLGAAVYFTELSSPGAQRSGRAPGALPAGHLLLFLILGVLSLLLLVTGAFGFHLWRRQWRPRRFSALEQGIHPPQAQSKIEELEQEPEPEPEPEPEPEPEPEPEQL


How the values were obtained:
mFc-tagged LAG-3 protein = target: T1, mFc-tagged LAG-3 protein; assay: ELISA competition: blocks mFc-tagged LAG-3 binding to coated LSECtin
Description: 96-well plates were coated with human LSECtin or Galectin-3 at 0.5 μg/mL overnight at 4° C., respectively. Antibodies were serially diluted in 1% BSA-PBS and mixed with mFc-tagged LAG-3 protein. After blocking and washing, the mixture was transferred to the plates and incubated at room temperature for 1 h. The plates were then washed and subsequently incubated with corresponding secondary antibody for 60 min. After washing, TMB substrate was added and the color reaction was stopped by 2M HCl. The absorbance at 450 nm was read using a microplate reader.

[1] = target: T2, full-length human LAG-3 on cells; assay: FACS on human LAG-3 transfectant cells after incubation of the antibody in human serum at 37 C, PE-labeled goat anti-human IgG, MFI
Description: The lead Abs were incubated in freshly isolated human serum (serum content>95%) at 37° C. On indicated time points, an aliquot of serum treated sample was removed from the incubator and snap frozen in liquid N₂, and then stored at −80° C. until ready for test. The samples were quickly thawed immediately prior to the stability test. Human LAG-3 transfectant cells were incubated with various concentrations of lead antibodies at 4° C. for 1 hour. PE-labeled goat anti-human IgG was used to detect the binding of lead antibodies onto the cells. MFI of the cells was measured by a flow cytometer (BD FACSCanto II) and analyzed by FlowJo.

Variant 10: xPro1.FL-x10 = target: T3, Variant 10: xPro1.FL-x10; assay: FACS, 1 ug/mL antibody, transfected 293F cells
Description: The 10 variants were cloned into pcDNA3 vector and used for 293F cell transfection. Briefly, 293F cells were diluted to a density of 1×10⁶ cells/mL with FreeStyle 293F medium and aliquots of 3 mL/well were added to 24-well plate. Transfections were performed using 293fectin reagent (Life Technologies). For each transfection, 3 μg of DNA were diluted in 150 μOpti-MEM I-reduced serum medium (Life Technologies), and then combined with 6μL 293fectin reagent pre-diluted in 150 μL Opti-MEM I reduced serum medium. The DNA/[…] mixture was allowed to stand at 25° C. for 20 min before being added to the culture. The transfected cells were analyzed by flow cytometry at 48 h post-transfection.
Binding of antibodies to chimeric LAG-3 variants or full length human/mouse LAG-3 was analyzed by flow cytometry. Briefly, 1 μg/mL antibodies were incubated with chimeric LAG-3-expressing transfected 293F cells for 1 hour at 4° C., and then incubated with 3 μg/mL goat anti-human IgG Fc R-PE (Jackson) for 40 min at 4° C. Cells were analyzed with flow cytometer.

EC50 (mFc-tagged LAG-3 protein) [nM] | EC50 (read off the curve) [1] [nM] | MFI (Variant 10: xPro1.FL-x10) | PE+ % (Variant 10: xPro1.FL-x10) [%] | Binder
0.71 | ~3 | 42.3 | 1.98 | 1.53.3-uAb-IgG4k (antibody, V domains shown, Fully human antibody from OMT rats; IgG4 kappa by its name) VH: QVQLQQWGAGLLKPSETLSLTCGVYGGSFSGYYWSWIRQPPGMGLEWIGEINHRGNTNYNPSLKSRVTISEDTSKNQFSLRLSSVTAADTAVYFCTRGEDYSDYDYYGDFWGQGTLVTVSS VL: EIVLTQSPATLSLSQGERATLSCRASQSISSYLAWYQQKPGQAPRLLIYAASNRATGIPARFSGSGSGTDFTLTISSLEPEDFAIYYCQQRSNWPLTFGGGTKVEIK
0.51 | ~0.8 | 68.5 | 0.988 | 3.40.19-uAb-IgG4L (antibody, V domains shown, Fully human antibody from OMT rats; IgG4 lambda by its name; also called 3.40.19-uAb-hIgG4L) VH: QLQLQESGPGLVKPSETLSLTCTVSGDSISSTSYYWGWIRQPPGKGLEWIGSFYYSGSTYYNPSLKSRVTISVDTSKNQFSLKLNSVTAADTAVYYCARMQLWSYDVDVWGQGTTVTVSS VL: QSALTQPASVSGSPGQSITISCTGTSSDVGGYDYVAWYQQHPGKVPKLMIYDVSERPSGVSNRFSGSKSGNTASLTISGLQAEDEADYYCSSYTSTTTLVVFGGGTKLSVL
